The record followed here is patent publication US20160244499A1.

Test [1] addresses C-terminally biotinylated IL-13Rα1 ectodomain (human) (UniProt P78552). In words: Table 1, affinity for IL-13Rα1; method for this row not stated.
The target of test [2] is C-terminally biotinylated γc ectodomain (human) (UniProt P31785). Description: SPR, cytokine/IL-4Rα complex on immobilised γc. On the technique in general: Surface plasmon resonance follows binding to a sensor surface in real time, without labels.
For test [3] the target is unchanged. Description: SPR (Biacore T100), biotinylated γc on SA chip, cytokine/IL-4Rα complex as analyte, 1:1 model.
Test [4] has as its target C-terminally biotinylated IL-13Rα1 ectodomain (human) (UniProt P78552). Description: SPR (Biacore T100), biotinylated IL-13Rα1 on SA chip, cytokine/IL-4Rα complex as analyte.
Test [5] deals with C-terminally biotinylated γc ectodomain (human) (UniProt P31785). In words: SPR, comparison of affinities for γc and IL-13Rα1.
In test [6] the target is T1, γc on human cell lines (Ramos, HH, U937) (human) (UniProt P31785).
T1 sequence (looked up): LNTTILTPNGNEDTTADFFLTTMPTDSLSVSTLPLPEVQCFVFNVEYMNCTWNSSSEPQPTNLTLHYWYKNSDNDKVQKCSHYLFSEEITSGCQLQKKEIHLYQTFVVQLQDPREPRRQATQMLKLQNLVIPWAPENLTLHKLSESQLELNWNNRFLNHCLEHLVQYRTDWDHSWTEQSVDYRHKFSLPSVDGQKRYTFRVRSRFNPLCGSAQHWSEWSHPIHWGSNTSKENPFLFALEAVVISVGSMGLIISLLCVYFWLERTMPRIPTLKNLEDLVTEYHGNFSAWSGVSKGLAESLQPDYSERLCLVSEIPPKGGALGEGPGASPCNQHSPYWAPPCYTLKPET
Description: cell-based or functional assay.

The target in test [7] is C-terminally biotinylated IL-13Rα1 ectodomain (human) (UniProt P78552). Description: SPR (Biacore T100), biotinylated IL-13Rα1 on SA chip, cytokine/IL-4Rα complex as analyte, 1:1 model.

Sequence of wild-type IL-4, free recombinant cytokine (P05112 other isoform, or with tags, fused parts or gaps): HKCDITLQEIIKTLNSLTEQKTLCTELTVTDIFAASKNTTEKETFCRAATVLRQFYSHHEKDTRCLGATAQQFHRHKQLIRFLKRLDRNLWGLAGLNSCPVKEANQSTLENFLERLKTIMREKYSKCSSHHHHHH

As usually defined, the Kd is the equilibrium constant for the complex coming apart. Low values mean a tighter complex, high ones a looser complex. In turn, “IL-13 (from UniProt P35225 35-146) (ligand)” returned a dissociation constant (Kd) in test [1] of 0.03 µM.
For orientation: koff means the first-order rate constant of dissociation. Low values mean slow dissociation, high ones fast dissociation. A word on the kon: it is a measure of how fast the partners come together. High values mean fast association, low ones slow association. In test [2], “RGA/IL-4Rα binary complex (from UniProt P24394 26-202)” yielded a fold faster on-rate (against IL-4) of 6 fold, a fold higher affinity (against IL-4/IL-4Rα) of 3700 fold and a logs gained in binding affinity (against IL-4) of 4 log. In test [3], this substance had a Kd of 0.00089 µM, a koff of 0.00059 s⁻¹ and a kon of 660000 M⁻¹ s⁻¹. This substance registered a Kd in test [4] of 21 µM. Moreover, the selectivity for the Type-I receptor complex over the Type-II receptor in test [5] is 6 log.
In test [6], “wild-type IL-4, free recombinant cytokine (from UniProt P05112 25-153) (ligand)” had a mean MFI of STAT6 phosphorylation, Ramos cells, 100 pg/ml, 20 minute stimulation of 7.7 MFI; a percentage decrease in STAT6 phosphorylation caused by 50 µg/ml of anti-γc, Ramos cells, 100 pg/ml cytokine of 58%; a reduction in STAT6 phosphorylation on blocking γc in U937 cells of 44%.
In test [7], “wild-type IL-4/IL-4Rα binary complex (from UniProt P24394 26-202)” yielded a Kd of 4.2 µM, a koff of 0.17 s⁻¹ and a kon of 41000 M⁻¹ s⁻¹. In test [3], this substance showed a Kd of 3.3 µM, a koff of 0.31 s⁻¹ and a kon of 95000 M⁻¹ s⁻¹.
